From US12709641B2, “Tau binding compounds” (VOYAGER THERAPEUTICS, INC., dated 2026)
No end group written: not given here.

Legend:
[1] = target: wild type tau (Homo sapiens (Human), UniProt P10636-8); experiment: direct ELISA
Experimental: (§1) Variable domain nucleic acid sequences from antibodies obtained from immunizations described above were used to prepare recombinant mouse IgG antibodies. These candidate antibodies were analyzed for binding to ePHF and specificity for ePHF over wild type tau by direct ELISA.
(§2) For direct ePHF and wildtype tau ELISA, plates were first coated with ePHF or wild type tau. Antigen solutions were prepared in PBS and 50 μL were pipetted into each well. Plates were covered and incubated for one hour at 37° C. or overnight at 4° C. Plates were then washed and blocked by addition of 150 μl of blocking buffer to each well and incubated one hour at room temperature. Plates were then washed before addition of serially diluted candidate antibody samples prepared in blocking buffer. Detection of candidate antibody binding was carried out by washing plates and adding a solution of enzyme-labeled secondary antibody in blocking buffer to each well. Secondary antibody binding was detected by addition of substrate and spectrophotometric analysis of resulting reaction product.

[2] = target: iPHF (Homo sapiens (Human), UniProt P10636-8); experiment: Octet, antibody on biosensor tips
Experimental: Anti-human tau antibodies were assessed for affinity for iPHF by Octet (ForteBio, Menlo Park, CA) analysis. Recombinant mouse IgG antibodies were prepared with clone-specific variable domain pairs selected from those presented in Table 3 and mouse IgG1 constant domains. Candidate antibodies were immobilized on biosensor tips (ForteBio) in kinetic buffer (ForteBio). Biosensor tips were then washed before introduction of a solution of iPHF in kinetic buffer for analysis of association and dissociation with candidate antibodies. Affinity measurements (K_D) were obtained using Data Analysis HT version 11.1 and corrected for background and high-frequency noise.

[3] = target: T1, enriched paired helical filament tau protein (ePHF) (human, phosphorylated residues of pathological tau, sites not stated); experiment: direct ELISA
Experimental: as §1, §2

[4] = target: T2, peptides corresponding with residues 413-430 of human tau (human, also: biotin, position not given here, phosphorylated residues, sites not given here); experiment: Pepscan biotinylated peptides, BLI or colorimetric detection
T2 peptide: STGSIDMVDSPQLATLAD
Experimental: Recombinant mouse IgG antibodies were prepared with clone-specific variable domain pairs selected from those presented in Table 3 and mouse IgG1 constant domains. Epitope analysis was carried out with different anti-tau antibodies using a peptide scanning approach (e.g., see Verelst, J. et al. Front Mol Biosci. 2020 Mar. 31; 7:48). Libraries of overlapping synthetic biotinylated peptides corresponding to phosphorylated human tau (Pepscan, Lelystad, NL) were obtained and used to coat assay plate wells, each with individual library members. Recombinant mouse IgG antibodies were prepared with clone-specific variable domain pairs selected from those presented in Table 3 and mouse IgG1 constant domains. Antibody binding to peptides in each well was analyzed using colorimetric detection of peptide-antibody complexes with labeled secondary antibody or by associating biotinylated peptides with streptavidin coated biosensors in assay wells and assessing antibody binding by bio-layer interferometry (BLI)-based detection.

[5] = target: T1, enriched paired helical filament tau …; experiment: follow up analysis, method not stated

Binder | EC50 [1] | Kd [2] | EC50 [3] | Kd [4] | selectivity for ePHF over wild type tau [5]
V0033 (antibody, V domains shown) VH: EVQLQQSGAELVRPGSSVKMSCKTSGYTFTSYGINWVKQRPGQGLEWIGYIYIGNGHTEYNEKFEGKATLTSDTSSSTAYMQLSSLTSEDSAIYFCAGTGTLFDYWGQGTTLTVSS VL: not shown | 0.342 nM |  |  |  | 
V0050 (antibody, V domains shown) VH: EVQLQQSGPELVKPGASVKIPCRASGYTFTDYNMDWVKQSHGKTLEWIGDINPNNGGTIYNQKFKGKATLTVDKSSSTAYMELRSLTSEDTAVYYCARGRGMGYYALDYWGQGTSVTVSS VL: DIQMTQSPASLSASVGETVTFTCGASENVYGALNWYQRKQGKSPQLLIYGATNLADGMSSRFSGSGSGRQYSLKISSLHPDDVATYYCQNVLTIPWTFGGGAKLEIK |  | 0.4 nM | 17.9 nM |  | 
V0026 (antibody, V domains shown) VH: QVQLQQSGPELVKPGASVKISCKASGYSFTDYYINWVKQRPGQGLEWIGWIFPGSDSTYYNEKFKGKATLTVDKSSSTASMLLSSLTSEDSAVYFCARPTVVARDYAMDYWGQGTSVTVSS VL: DVLMTQTPLSLPVSLGDQASISCRSSQSIVYSNGNTYLEWYLQKPGQSPKLLIYKVSNRFSGVPDRFSGSGSGTDFTLKISRVEAEDLGVYYCFQGSHVPYTFGGGTKLEIK |  | 0.7 nM | 5.61 nM |  | 
V0024 (antibody, V domains shown) VH: QVQLQQPGTELVKPGASVKLSCKASGYTFTRFWMHWVKQRPGQGLEWIGNINPNNGGTDNNERFKSKATLTVDRSSSTAYMQLSSLTSEDSAVYYCARGTGTGAMDYWGQGTSVTVSS VL: DVVMTQTPLSLPVSLGDQASISCRSSQSLVHSNGNTHLYWYLQKPGQSPKLLIYRVSSRFSGVPDRFSGSGSGTDFTLKISRVEAEDLGVYFCFQGTHVPRTFGGGTKLEIK |  |  |  | 0.225 nM | 
V0027 (antibody, V domains shown) VH: QVQLQQSGPELVKPGASVKISCKASGYTFTEYYLNWMKQRPGQGLEWIGWIFPGRGSTNYNEKFKGKATLTVDKSSSTAYMLLSSLTSEDSAVYFCARPTIVARDYAMDYWGQGTSVTVSS VL: DVLMTQTPLSLPVSLGDQASISCRSSQSIVHRNGNTYLEWYLQKPGQSPKLLIYKVSNRFSGVPDRFSGSGSGTDFTLKISRVEAEDLGVYYCFQGSHVPFTFGSGTKLEIK |  | 10.5 nM | 3.51 nM |  | 
V0032 (antibody, V domains shown) VH: QVQLKQSGAELVRPGASVKLSCKTSGYTFTDYYIKWVKQRPGQGLEWIARIYPGSGNTYYNEKFKGKATLTAEKSSSTAYMQLSSLTSEDSAVYFCARPAYYSKDYAMEYWGQGTSVTVSS VL: DVLMTQTPLSLPVSLGDQASISCRSSQSIVYTNGNTYLEWYLQKPGQSPKLLIYKVSNRFSGVPDRFSGSGSGTDFTLKISRVEAEDLGVYYCFQGSHVPYTFGGGTKLEIK |  | 17.5 nM | 14.3 nM |  | 
V0031 (antibody, V domains shown) VH: QVQLQQPGTELVKPGASVKLSCKASGYTFTSYWMHWVKQRPGQGLEWIGNIYPSNGGTYYNEKFKSKATLTVDKSSSTAYMQLSSLTSEDSAVYYCARSSVVGRDYAMDYWGQGTSVTVSS VL: DVLMTQTPLSLPVSLGDQASIACRSSQSIVHSNGNTYLEWYLQKPGQSPELLIYKVSNRFSGVPDRFSGSGSGTDFTLKISRVEAEDLGVYYCFQGSHVPYTFGGGTKLEIK |  | 57.7 nM | 8.8 nM |  | 
V0035 (antibody, V domains shown) VH: EAQLQQSGAELVRPGSSVKMSCKTSGYTFTSYGINWVKQRPGQGLEWIGYIYIRNGNTAYNEKFKGKATVTSDTSSSTVYMQLSSLTSEDSAIYFCAGTGTSFTYWGQGTLVTVSA VL: not shown | 0.169 nM |  | 0.315 nM |  | 
V0034 (antibody, V domains shown) VH: EVQLQQSGAELVRPGSSVKMSCKTSGYTFTSYGINWVKQRPGQGLEWVGYIYIRDGNTAYNEKFKGKATVTSDTSSSTVYMQLSSLTSEDSAIYFCAGTGTSFAYWGQGTLVTVSA VL: not shown | 0.14 nM |  | 0.351 nM |  | 
V0004 (antibody, V domains shown) VH: QVQLQQPGAELVKPGASVKLSCKASDYTFTNYWMHWVKQRPGRGLEWIGRIDPNSGGTRYNEKFKNKATLTVDKPSSTAYMHLSSLTSEDSAVYYCAGDFDVWGTGTTVTVSS VL: DIQMTQSPASLSASVGETVTITCRASGNIHNYLAWYQQRQGKSPQLLVYNAKTLPDGVPSRFSGSGSGTQYSLKINSLQPEDFGSYCCQHFWSTPLTFGAGTKLELK |  | 20 nM | 0.083 nM |  | 100 fold
V0009 (antibody, V domains shown) VH: EVQLVESGGALVQPGGSLSLSCAASGFTFTDYYMSWVRQPPGKALEWLALIRNKAKGFTTEYSASVKGRFTISRDNSQSILLFQMNDLRADDSATYYCVRDINYWGQGTTLTVSS VL: not shown |  | 0.2 nM | 0.038 nM |  | > 100 fold
V0058 (antibody, V domains shown) VH: not shown VL: DIVMTQSPSSLSVSAGEKVTMSCKSSQSLLSSGNQKNYLAWYQQKPGQPPKLLIYGASTRESGVPDRFTGSGSGTDFTLTISSVQAEDLAVYYCQNDHSHPYTFGGGTKLEIK |  | 1 nM | 2.45 nM |  | 
V0054 (antibody, V domains shown) VH: not shown VL: DIVMTQSPSSLSVSAGEKVTMSCKSSQSLLNSGNQKNYLAWYQQKPGQPPKLLIYGTSTRESGVPDRFTGSGSGTDFTLTISSVQAEDLAVYYCQNDHSHPYTFGGGTKLEIK |  | 105 nM |  |  | 
V0057 (antibody, V domains shown) VH: not shown VL: DIVMTQSPSSLSVSAGEKVTMSCKSSQSLLNSGNQKNYLAWYQQKPGQPPKLLIYGASTRESGVPDRFTGSGSGTDFTLTISSVQAEDLAVYYCQNDHSHPYTFGGGTKLEIK |  | 17.4 nM |  |  | 
V0020 (antibody, V domains shown) VH: QVQLQQPGTDLVKPGASVKLSCKASGYTFTSYWMHWLKQRPGQGLEWIGNINPNNSDANYNEKFKSKATLTVDKSSSAAYMQLISLTSEDSAVYYCARANYYGGSQFAYWGQGTLVTVSA VL: DVVVTQTPLSLPVSLGDQASISCRSSQSLVHSNGKTYLHWYLQKPGQSPNLLIYKVSNRFSGVPDRFSGSGSGTDFTLKISRVEAEDLGVYFCSQSTHVPFTFGSGTKLEIK |  | 32.7 nM | 0.351 nM |  | 
V0021 (antibody, V domains shown) VH: QVQLQQPGIELVKTGASVKLSCKASGYTFTSNWMHWLKQRPGQGLEWIGNINPNNSETNYNEKFRKKATLTVDKSSSAAYMQLISLTSEDSAVYYCARANYYGGSQFAYWGQGTLVTVSA VL: DVVMTQTPLSLCVSLGDQASISCRSSQSLVHSNGKTYLHWYLQKPGQSPNLLIYKVSNRFSGVPDRFSGSGSGTDFTLKISRVEAEDLGVYFCSQSTHVPFTFGSGTKLEIK |  | 15.1 nM | 0.571 nM |  | 
V00018 (antibody, V domains shown) VH: QVQLQQPGADLVRPGSSVKLSCKASGYTFTRSWMHWVKQRPIEGLEWIGNIDPSDSEAHYNQKFKDKATLTVDKFSNTAYMQLSSLTSEDSAVYYCARWDDFYVAYWGQGTLVTVSA VL: DIVLTQSPASLAVSLGQRATISCRASKSVSTSGYSYIHWYQQKPGQPPKLLIYLASNLESGVPARFSGSGSGTDFTLNIHPVEEEDAATYYCQHSRELPWTFGGGTKLEIK | 0.238 nM |  | 0.718 nM |  | 
V00019 (antibody, V domains shown) VH: QVQLQQPGAALVRPGSSVKLSCKASGYTFTSSWMHWVKQRPIQGLEWIGNIDPSDGETHYNQKFKDKATLTVDKSSNTAYMQLSSLTSEDSAVYYCARWDDYYVAYWGQGTLVTVSA VL: DIVLTQSPASLAVSLGQRATISCRASKSVSTSGYSYMHWYQQKPGQPPKLLIYLASNLESGVPARFSGSGSGTDFTLNIHPVEEEDAATYYCLHSRELPWTFGGGTKLEIK | 0.285 nM |  |  |  | 
V00016 (antibody, V domains shown) VH: EVQLQQSGAELVKPGASVKLSCTASGFNIKDYYIHWVKQRTEQGLEWIGRIDPEDGETKYAPKFQGKATIAADTSSNTAYLHLNSLTSEDTAVYYCAREFSYAMDYWGQGTSVTVSS VL: NIMMTQSPSSLAVSAGEKVTMSCKSSQSVLYSSNQKNYLAWYQQKPGQSPKLLIYWASTRESGVPDRFTGSGSGTDFTLTISSVQAEDLAVYYCHQYLSSRTFGGGTKLEIK | 0.141 nM |  |  |  | 
